According to patent US20240132578A1:

Tests used:
Experiment in all cases: cell-based or functional assay
[1] = target: HIV-1 Env of isolate MGRM-G-028 (subtype G), on pseudovirus (HIV-1)
[2] = target: HIV-1 Env of isolate MGRM-G-006 (subtype G), on pseudovirus (HIV-1)
[3] = target: HIV-1 Env of isolate APV 13 (subtype B) (HIV-1)
[4] = target: HIV-1 Env of isolate MGRM-G-024 (subtype G), on pseudovirus (HIV-1)
[5] = target: HIV-1 Env of isolate MGRM-G-004 (subtype G), on pseudovirus (HIV-1)
[6] = target: HIV-1 Env of isolate MGRM-G-009 (subtype G), on pseudovirus (HIV-1)
[7] = target: HIV-1 Env of isolate 93TH305 (subtype B) (HIV-1)
[8] = target: HIV-1 Env of isolate MGRM-G-027 (subtype G), on pseudovirus (HIV-1)
[9] = target: HIV-1 Env of isolate MGRM-G-011 (subtype G), on pseudovirus (HIV-1)
[10] = target: aMLV envelope, on pseudovirus (negative control)
[11] = target: HIV-1 Env of isolate MGRM-G-016 (subtype G), on pseudovirus (HIV-1)
[12] = target: HIV-1 Env of isolate MGRM-G-014 (subtype G), on pseudovirus (HIV-1)
[13] = target: HIV-1 Env of isolate MGRM-G-015 (subtype G), on pseudovirus (HIV-1)
[14] = target: HIV-1 Env of isolate 92BR020 (subtype B) (HIV-1)
[15] = target: HIV-1 Env of isolate MGRM-G-025 (subtype G), on pseudovirus (HIV-1)
[16] = target: HIV-1 Env of isolate 6535.3 (subtype B) (HIV-1)
[17] = target: HIV-1 Env of isolate APV_17 (subtype B) (HIV-1)
[18] = target: HIV-1 Env of isolate APV 6 (subtype B) (HIV-1)
[19] = target: HIV-1 Env of isolate MGRM-G-001 (subtype G), on pseudovirus (HIV-1)
[20] = target: HIV-1 Env of isolate MGRM-G-019 (subtype G), on pseudovirus (HIV-1)
[21] = target: HIV-1 Env of isolate MGRM-G-017 (subtype G), on pseudovirus (HIV-1)
[22] = target: HIV-1 Env of isolate MGRM-G-013 (subtype G), on pseudovirus (HIV-1)
[23] = target: HIV-1 Env of pseudovirus JRCSF (HIV-1) (UniProt P20871)
[24] = target: HIV-1 Env of pseudovirus MGRM-C-26 (HIV-1)
[25] = target: HIV-1 Env of pseudovirus 92TH021 (HIV-1)

Binder | IC50 (µg/mL), neutralization of pseudovirus [1] [µg/mL] | IC50 (µg/mL), neutralization of pseudovirus [2] [µg/mL] | IC50 (µg/mL), pseudovirus neutralization [3] [µg/mL] | IC50 (µg/mL), neutralization of pseudovirus [4] [µg/mL] | IC50 (µg/mL), neutralization of pseudovirus [5] [µg/mL] | IC50 (µg/mL), neutralization of pseudovirus [6] [µg/mL] | IC50 (µg/mL), pseudovirus neutralization [7] [µg/mL] | IC50 (µg/mL), neutralization of pseudovirus [8] [µg/mL] | IC50 (µg/mL), neutralization of pseudovirus [9] [µg/mL] | IC50 (µg/mL), neutralization of pseudovirus [10] [µg/mL] | IC50 (µg/mL), neutralization of pseudovirus [11] [µg/mL] | IC50 (µg/mL), neutralization of pseudovirus [12] [µg/mL] | IC50 (µg/mL), neutralization of pseudovirus [13] [µg/mL] | IC50 (µg/mL), pseudovirus neutralization [14] [µg/mL] | IC50 (µg/mL), neutralization of pseudovirus [15] [µg/mL] | IC50 (µg/mL), pseudovirus neutralization [16] [µg/mL] | IC50 (µg/mL), pseudovirus neutralization [17] [µg/mL] | IC50 (µg/mL), pseudovirus neutralization [18] [µg/mL] | IC50 (µg/mL), neutralization of pseudovirus [19] [µg/mL] | IC50 (µg/mL), neutralization of pseudovirus [20] [µg/mL] | also measured
PGT-136 (antibody, V domains shown) VH: QLQLQESGPGLVKPSETLSLTCTVSGGSMRGTDWGENDFHYGWIRQSSAKGLEWIGSIHWRGRTTHYKTSFRSRATLSIDTSNNRFSLTFSFVTAADTAVYYCARHKYHDIFRVVPVAGWFDPWGQGLLVTVSS VL: EIVMTQSPPTLSVSPGETATLSCRASQNVKNNLAWYQLKPGQAPRLLIFDASSRAGGIPDRFSGSGYGTDFTLTVNSVQSEDFGDYFCQQYEEWPRTFGQGTKVDIK | > 50 | > 50 | > 50 | 0.152 | > 50 | > 50 | 20.2 | 45.2 | > 50 | > 50 | > 50 | > 50 | > 50 | 8.61 | > 50 | > 50 | > 50 | > 50 | 8.11 | 44.3 | IC50 (µg/mL), neutralization of pseudovirus [21]: > 50 µg/mL; IC50 (µg/mL), neutralization of pseudovirus [22]: > 50 µg/mL
PGT-131 (B cell culture well 5136_H1) (antibody, V domains shown) VH: QVQLQESGPGLVKPSETLSLTCTVSGDSINTGHHYWGWVRQVPGKGPEWIAHIHYNTAVLHNPALKSRVTISIFTLKNLITLSLSNVTAADTAVYFCVRSGGDILYYIEWQKPHWFYPWGPGILVTVSS VL: QSALTQPPSASGSLGQSLTISCSGTGSDIGSWNFVSWYQQFPGRAPNLIIFEVNRRRSGVPDRFSGSKSGNTASLTVSGLRSEDEAEYFCSSLSGRWDIVFGGGTKVTVL |  |  |  |  |  |  |  |  |  |  |  |  |  |  |  |  |  |  |  |  | Primary Neutralization Index (B cell culture supernatant) [23]: 6.2; Primary Neutralization Index (B cell culture supernatant) [24]: 1.2; Primary Neutralization Index (B cell culture supernatant) [25]: 354
PGT-131 (antibody, V domains shown) VH: QVQLQESGPGLVKPSETLSLTCTVSGDSINTGHHYWGWVRQVPGKGPEWIAHIHYNTAVLHNPALKSRVTISIFTLKNLITLSLSNVTAADTAVYFCVRSGGDILYYIEWQKPHWFYPWGPGILVTVSS VL: QSALTQPPSASGSLGQSLTISCSGTGSDIGSWNFVSWYQQFPGRAPNLIIFEVNRRRSGVPDRFSGSKSGNTASLTVSGLRSEDEAEYFCSSLSGRWDIVFGGGTKVTVL | 0.466 | > 50 | 0.189 | 10.7 | > 50 | > 50 | 0.016 | 2.9 | > 50 | > 50 | > 50 | 4.31 | > 50 | 6.16 | 7.75 | 0.056 | > 50 | > 50 | 0.404 | > 50 | IC50 (µg/mL), neutralization of pseudovirus [21]: > 50 µg/mL; IC50 (µg/mL), neutralization of pseudovirus [22]: > 50 µg/mL
